From US20230192839A1, “ANTIBODIES HAVING CONDITIONAL AFFINITY AND METHODS OF USE THEREOF” (PFIZER INC., priority 2017, published 2023)

Experiments:
[1] = tested on: human CD33; assay: Biacore SPR binding kinetics of anti-CD33 scFv-Fc clones with or without 10 µM MTX
In short: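 Kinetics by SPR at 37° C in 10 mM Hepes pH 7.4, 150 mM NaCl, 0.05% Tween-20, with or without 10 µM MTX. Double-referenced data fit globally to Langmuir with mass transport; KD = koff/kon. Where binding was too weak for kinetics, KD or KD limit estimated from response at highest analyte concentration or instrument detection limit.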

[2] = tested on: MV4-11 target cells (which express CD33); assay: IL-2 and IFN-γ secretion by CD33-specific conditional CAR T cells after CAR or TCR stimulation; assay type: cell-based, human; conditions: activation via anti-CD33 CAR by MV4-11 cells; 100 µM MTX; 24 hours; FIGS. 6A and 6C
Method: The example examines the levels secretion of the cytokines IL-2 and IFN-γ by conditional CAR T cells containing an anti-CD33 antibody having conditional affinity, after stimulation of the CAR T cell via either i) the CAR in the CAR T cell or ii) the TCR in the CAR T cell. In addition, these were examined in both the presence and absence of methotrexate (MTX).
The anti-CD33 clone used in this example was P02_D09. […] In addition, a tool T cell was prepared as described in Example 4, as were untransduced T cells.
The target cell line used in this assay was MV4-11, as described in Example 5.
Assays were carried out in 96-well plates by culturing 100,000 T cells with various other reagents (depending on the assay), for each of the different T cells described above. Each of the co-cultures contained either 100 µM MTX or 0 µM MTX. In both conditions, 1 mM leucovorin was supplemented to circumvent MTX toxicity. To stimulate the CAR T cells via the anti-CD33 CARs, 100,000 MV4-11 target cells (which express CD33) were included in the culture with the T cells. To stimulate the CAR T cells via the TCR, T cell Activation/Expansion Beads (Miltenyi) were included in the culture with the T cells (i.e. in the absence of target cells). […] The cytokines in the supernatant were measured using U-PLEX Th1/Th2 Combo plates (Meso-Scale Discovery; Rockville, MD) according to the manufacturer’s specifications.

[3] = tested on: MV4-11 cells; assay: Sequential rounds of in vitro cytotoxicity assays with changing MTX concentration (reversible inhibition); assay type: cell-based, human; conditions: Round 0-1 no MTX, then 100 µM MTX at Round 1-2 and Round 2-3; FIGS. 9A and 9B
Method: The anti-CD33 clones tested in this example were: P03_A01, P07_C04, and P02_D09. In addition, a tool T cell was prepared as described in Example 4, as were untransduced T cells. Also, each of the different conditional CAR T cells described above was generated in triplicate from PBMC cells from three different human donors. The target cell line used in this assay was MV4-11; these cells were transduced to stably express GFP and firefly luciferase, as described in Example 5.
This experiment involved a series of in vitro cytotoxicity assays, in which co-cultures of T cells and MV4-11 target cells were incubated together for multiple rounds of sequential cytotoxicity assays, in which the MTX concentration changed at different rounds of the assays. In vitro cytotoxicity assays were carried out in 24-well plates by co-culturing 200,000 T cells with 200,000 MV4-11 cells, for each different T cells described above. In addition, each of the co-cultures contained either 100 µM MTX or 0 µM MTX at different times, as indicated by the schematics in FIGS. 9A and 9C. In both conditions, 1 mM leucovorin was supplemented to circumvent MTX toxicity. For each round of the assay, co-cultures were maintained in a final volume of 500 µl of RPMI 1640 medium at 37 C with 5% CO2 for 48 hours. At the end of each round, cells were spun down (250 × g, 10 minutes), supernatant was removed, and fresh media containing fresh MV4-11 cells, leucovorin, and optionally MTX were added according to the schematics shown in FIGS. 9A and 9C. Target cell killing was assessed and plotted as described in Example 4.
In comparing the different panels of FIGS. 9A-9D, note that the schematics shown in FIGS. 9A and 9C indicate the MTX concentration in the co-culture at the start of the assay for a given round, whereas the results from that assay are shown the next round number in FIGS. 9B and 9D, respectively. […]

[4] = CD33, 0 µM MTX, 37° C., pH 7.4, scFv-Fc

koff, kinetics toward antigen with 0 µM MTX [1, 4]: 0.018 s⁻¹ | kon, kinetics toward antigen with 0 µM MTX [1, 4]: 40000 M⁻¹ s⁻¹ | Kd ([1]; CD33, 10 µM MTX, 37° C., pH 7.4, koff/kon, or estimated from binding response / limit of detection for weak interactions, read-out: KD, kinetics toward antigen with 10 µM MTX): > 9.29 µM
B1: P02_D09: anti-CD33 clone with conditional affinity; VH SEQ ID NO: 35, VL SEQ ID NO: 36; also as scFv in CAR (antibody, V domains shown)
VH: QVQLVESGGGLVQAGGSLRLSCAASRRSSRSWAMHWVRQAPGKGLEWVAVISYDGRLKYYADSVKGRFTISRDNAEYLVYLQMNSLRAEDTAVYYCAAEEGDGGFFDYWGQGTLVTVSS
VL: QSVLTQPPSASGTPGQRVTISCSGSSSNIGSNYVNWYQQLPGTAPKLLIYRNNERPSGVPDRFSGSKSGTSASLAISGLRSEDEADYYCAAWDGSLSGRGVFGTGTKLTVL
modifications: Synthetic Antibody
notes: also as scFv in CAR
affinity for CD33 in the presence of MTX as compared to absence (in words) ([1]; 10 µM MTX vs 0 µM MTX): significantly greater affinity toward CD33 (i.e. lower KD) in the absence of MTX than in the presence of MTX | IL-2 and IFN-γ production, CAR stimulation, presence of MTX [2]: reduced back to the level comparable to that of unstimulated T cells | target cell killing when MTX is added to active CAR T cells ("on" to "off") [3]: quick inhibition rates
